Earlier results, collected in article PMC3097287.
Where two headings read alike, the source gives them in different places.

Columns and labels:
ANP (Rattus norvegicus) = ANP (Rattus norvegicus) (UniProt P01161)
[1] = target: NPRA ECD (Rattus norvegicus) (UniProt P18910); assay: sedimentation equilibrium
[2] = target: NPRA ECD (Rattus norvegicus) (UniProt P18910); assay: sedimentation equilibrium; remark: listed apart in the source

Sequence of UniProt P01161 (P01161 123-150): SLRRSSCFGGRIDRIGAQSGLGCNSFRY

NPRA ECD (from UniProt P18910)
Kd (ANP (Rattus norvegicus)): 1 nM | Kd [1]: 500 nM | Kd [2]: 10 nM
